Consider two proteins from patent US20220306702.

Data set [1] concerns the target 64 other human C4 ZF containing proteins.
Data set [2] deals with GST-TAB2 protein substrate [GST: P08515].

B1: wild-type NleE (EPEC NleE) (protein)
chain: MINPVTNTQGVSPINTKYAEHVVKNIYPEIKHDYFNESPNIYDKKYISGITRGVAELKQEEFVNEKARRFSYMKTMYSVCPEAFEPISRNEASTPEGSWLTVISGKRPMGQFSVDSLYNPDLHALCELPDICCKIFPKENNDFLYIVVVYRNDSPLGEQRANRFIELYNIKRDIMQELNYELPELKAVKSEMIIAREMGEIFSYMPGEIDSYMKYINNKLSKIE
Take B1: the “modification by NleE (cysteine methylation assay)” value in data set [1] is given as “But few of them were modified by NleE”.

B2: NLeE from Shigella (Shigella NleE) (protein)
chain: GSMRKKRRQRRRSIEIKMISPIKNIKNVFPINTANTEYIVRNIYPRVEHGYFNESPNIYDKKYISGITRSMAQLKIEEFINEKSRRLNYMKTMYSPCPEDFQPISRDEASTPEGSWLTVISGKRPMGQFSVDSLYHPDLHALCELPEISCKIFPKENSDFLYIIVVFRNDSPQGELRANRFIELYDIKREIMQVLRDESPELKSIKSEIIIAREMGELFSYASEEIDSYIKQMNDRLSQIKARMPVTGSRS
With B2, in data set [2], the “methylase activity (MTase glo assay)” value is “the Shigella NleE showed methylase activity at levels comparable to that seen for the EPEC NleE”.
